# Data: the DeepSol protein solubility set
# Assay: soluble on expression in E. coli; label from the status in PepcDB or PDB records
row,Sequence,soluble on expression in E. coli
1,MDQAHANAASLEASDLFDADWYLAEYPDVQSLQMPPAVHYLWLGARLGRNPSPRFSTRSYLDANPDVAQAGINPLLHFLLAGRDEGRSGTILAAPSRGSTETDVNASTFGEHRPYVFLPPADLDRIAAQWSKDSARPDAQGRGIAIFSAITGSYDSINHHEHLIPGADYLLFSDAPKPRYVYQPRQAPWFDCDTVRAARFIKTHPHMLLGGYRIAVWIDGNILIRGDLLPLVQRFEESGLAFGAVPHPLRQSVYAEAVECMKRGKDDEATIRRQMQRYRREEFDCEDLIESNLLMFRLGHPSLAPLLDTWWAQIESGSRRDQLSLNYALHKTGVEWLALTQRPHSVRDHPALALMHHRSQFNPAEPGVCLPRPRERTFAEVRAERIAAQSARRADVIVCVHNAPEMVARCLDSVRTGQNPDRHRIIIIDDGSGRDTAELVSRFAADTPNTVLIRNAVAGGYTRAANQGLKAMDADMAILLNSDTVVAPGWIEKLLDAAFSNPGVGIVGPMSSAASHQSIPEHQSRHDQTAINDLPPGWSAADMDAWCERMAPADFLPRVPLVHGFCFAVTREAVERIGYLDEDSFPDGYGEENDYCLRATDAGVGLAIATHTYVFHEKSQSYQSDRRISLMKRGNGKIRELHGDERVARAVRSMQQNPHLGRLRTAAARLFAVTTPETPALEHHHHHH,not soluble
2,MMNISHKDHHNDQEISDANRDWWDSDAQRYHNDHAAYLNGFHWCPEMLPEREAHLLGDISGLNVLEIGCGSAPCSRWLFDNYDAFVTGFDLSMGMLRHSPTDVPLTQADAVNLPYKDSSFDIAFSAFGAFPFIENLGPVLKDIARCLKPHGKLVFSTNHPMRWIFPDDPTEIGLCAELSYFDRSYTERDKNGKITYAEFHRTMGDWIELLNASGFIIDRLIEPEWPTNLTETWGQWSPLRGRIFPGTAIFVTHCR,not soluble
3,MGSDKIHHHHHHMNMKYQHIIEVDKELCIGCGLCKNDCPVNNIIIENKKSVIKKQDCLMCGHCAAICPTKAITLTGFDEPPIELTNKPKLDSDELLMAIKSRRSIRKFKDKEVSSEIIKQIIEAGRYTPSAKNSQDVSYIVLDNKKSIYENEAVKFFRKIKPIANIAIKYSKEVEIDDNFFFKHAPIAIMIITKDKISGSLAASNMALMAESYGLGVLFSGYFSDVANNSPKLKKLLGLKRSNHVLTTLVIGYPDVKYRRTAQKEVATVRYL,not soluble
4,MGSDKIHHHHHHMNQIINDNYREFLKKLRERHLKKRKVKDKNKPIAVWMQDDIYRDFSIGKSLTIILRTEGCYYAKEGGCLMCSYLMDSSPEKITAENIINQFNYAIEKYKEKIKDLKDFSVKIFTSGSFLDDREVPKEARNYIFKKLSEFDNLKEVAIESRPEFIDEDKLNEIRKYLDVNVEIGVGIESFNEEIREKAINKGITNEQIIRAIELAKNYNIGIKAYLLIKPLFITEKEAIYDSISSANKCIELGCSRISFCPATVHKGSVMEFFFNKNQYRPPFLWSIIEILKEVKKSNPKALIMCDTSGVGSERGAHNLYNCKCNKLIKERLERFTLTQDINVLNVECECKNIWNAYIEVENKNIVPLGDERKLLL,not soluble
5,MLDPARSFDIIGDVHGCALTLERLLDALGYKRVAGVWRHPRRQALFLGDIVDRGPRIREALHIVHDMVEAGQAFCIMGNHEYNALGWVTPALPGSGKAYVREHTPRHARLIDETLTQFAQHPGDWHDFVNWFYQLPLFIDAGRFRLVHALEHHHHHH,not soluble
6,TANKRHYLEKVSHQGIISALAFDQRGALKQMMAAHQEGEATVTQIETLKVLVSEELTPYASSILLDPEYGLLATKVRANQTGLLLAYEKTGYDATTTSRLPDCLVEWSVKRLKAAGADAIKFLLYYDVDGDEQINLQKQAYIERIGSECTAEDIPFFLELLSYDERISDNNSAAYAKLKPHKVNGAMSVFSDKRFGVDVLKVEVPVNMAYVEGFTEGEVHYSQAEAIKAFQDQEAASHLPYIYLSAGVSAKLFQETLYFAAAAGAQFSGVLCGRATWAGSVPVYITKGEDEARKWLCTEGFQNIDELNRVLEETASPWTEKI,not soluble
7,MVSEEEEEEDGDAEETQDSEDDEEDEMEEDDDDSDYPEEMEDDDDDASYCTESSFRSHSTYSSTPGRRKPRVHRPRSPILEEKDIPPLEFPKSSEDLMVPNEHIMNVIAIYEVLRNFGTVLRLSPFRFEDFCAALVSQEQCTLMAEMHVVLLKAVLREEDTSNTTFGPADLKDSVNSTLYFIDGMTWPEVLRVYCES,not soluble
8,MARQTKPLSVKEIESAKPKEADYVLYDGDGLELLIKSSGSKIWQFRYIRPVTKTRAKKSIGPYPSVTLADARNYRAESRSLLAKQIDPQEHQQEQLRSSLEAKTNTFQLVAERWWNVKKASVTEDYAEDIWRSLERDVFPAIGDVSVTDIKAHTLVQAVQPVQARGALETVRRLCQRINEVMIYAQNTGLIDAVPSVNIGKAFEKPQKKNMPSIRPDQLSQLMQTMRTASISLSTRCLFMWQLLTITRPAEAAEARWEEVDIEAQEWKIPAARMKMNRDHTVPLSDEAIAVLEMMKPLSGNREFIFPSRIKPNQPMNSQTVNASLKRAGFGGVLVSHGLRSIASTALNEQGFPPDAIEAALAHVDKNEVRRAYNRSDYLEQRRPMMQWWANFVMAADRGSMIEGGIKGMKLVG,not soluble
9,MTVLVVRHGTAGSKAHFSGDDSKRPLDKRGRAQAEALVPQLLAFGATDVYAADRVRCHQTMEPLAAELNVTIHNEPTLTEESYANNPKRGRHRVLQIVEQVGTPVICTQGKVIPDLITWWCERDGVHPDKSRNRKGSTWVLSLSAGRLVTADHLEHHHHHH,not soluble
10,MAHHHHHHMSFFRMKRRLNFVVKRGIEELWENSFLDNNVDMKKIEYSKTGDAWPCVLLRKKSFEDLHKLYYICLKEKNKLLGEQYFHLQNSTKMLQHGRLKKVKLTMKRILTVLSRRAIHDQCLRAKDMLKKQEEREFYEIQKFKLNEQLLCLKHKMNILKKYNSFSLEQISLTFSIKKIENKIQQIDIILNPLRKETMYLLIPHFKYQRKYSDLPGFISWKKQNIIALRNNMSKLHRLY,not soluble
11,MRLFFSLLILLSFFARATEPVQVFTDDLGRKVTVPAHPKRIVSLHDLDITIPLIELGVPPVASHGRTRPDGSHFIRSGALLTGVDFDNSSIAFIGTADIDIEAIVAAKPDLIITEPTRNTPIERLEKIAPTVSIDHLKGGAPEIYRKLAELTGTQSQLAILERRYQAQINALKATLDSQKITVSVIQANQGKINVMHSYHSLGRVLRDAGFRFPPLIESIPEGGRMDVSAERLPELDADFVFATWRGDTGGKPQDELAAMEKVMPGWCQFLTACRSGRYVLISREEAISNSFASLGLMAAQIQSQIAGRPLPEAK,soluble
12,MKTLHSLSEQLGGLLANQQQILASAESCTGGGVAYWVTEVAGSSAWFDRSFVTYSNEAKQEMLGVRQATLQQFGAVSEQTVEEMALGALLHSKATLAAAISGIAGPGGGSAEKPVGTVCFGFASVQGWLKVETCHFTGDREQVRQQAIAHVLQSLIEHLAADQVQNVN,not soluble
13,SSSIKVECVIKEKNEVGESPVWEEKDSSLLYVDITGQKVSRWSSLTKQIESMNTEKLVGCVVPRQAGGYVIAEGTRFAFVDWVKRSITAVAEVNEKPNTRFNDGKVDPAGRFFAGTMSMDMKPDVVDAALYNLQPDHSVVRHFDQVHLSNGLDWSLDHRVFYYIDSLAFMVEAFDYDIQTGGLSNRRTVYKMEKDEGIPDGMCIDTEGKLWVACFNGGRVLRIDPQTGKRLQTVKLPAERITSCCFGGKDYSDLYITSAYIGMDAEALAKQPEAGCTFKVTGLGVKGIPPYSYTG,soluble
14,KGSTFIKAQDKYEVNILYLISHALVETGNGQSDLSKGIKEGDHHYYNFFGIGAFDEDAVKTGKSFAKQKKWTTPEKAIMGGAWFVRYHYFKNNQLSLYQMRWNPQNPGQHQYASDIQWANNIADLMEKYYDKYGIKKDHIRKKYYK,not soluble
15,MVRKALDGQEVVTASAETLRVEALEVRLGENLVLKEVDLAVEPGEIVALLGPSGSGKTTLLRAVAGLLRPTGGRILLGKEVFFDGKKGVFLPPERRNLGLVFQSYALWPQRTVYENVAYGLRLRKVPEKAVRERVLGLLDRLGLTGLERRYPGALSGGQQQRVSLARALAYDPKLLLLDEPLSNLDAKLRDQARVWLRETLKATGKAALFVTHDQGEAMAIADRIALLNEGRMEQVGTPEELYRNPKTLFVADFLGNPNVVEALVVGLEGSTARLELAGFPLRARAMGALVPGRLAKLVLRPEALRPAGVGEVNALEGALAHSLYLGSHYEHWVRVGDALLRFYSPLPLGEARVRLAVDPEAALAYPG,soluble
